From patent US20240279335A1, “CD28 SHEDDING BLOCKING AGENTS” (BIOND BIOLOGICS LTD., priority 2021, published 2024)
“And” between values parts separate entries of the source, which are not always exact repeats. Identical values can stand only once. Like-named read-outs stand apart in the source and are kept apart here.

How the values were obtained:
[1] = molecular target: T1, soluble CD28 (sCD28) from SEB stimulated PBMC (Homo sapiens, UniProt P10747); type: cell-based
T1 construct: PBMCs were isolated from fresh blood samples of healthy donors; endogenous in cells; host or cells: human PBMCs from healthy donors, SEB-stimulated

[2] = molecular target: human CD28 on the cell surface (membranal CD28) (human) (UniProt P10747); experiment: flow cytometry on human CD3 cells, 300 nM, anti-human IgG VHH Alexa Fluor 647
[3] = molecular target: human CD28 on the cell surface (membranal CD28) (human) (UniProt P10747); experiment: as above; remark: listed apart in the source
CD28-Fc = molecular target: T2, CD28-Fc (Homo sapiens, UniProt P10747); experiment: Biacore multi-cycle kinetics on immobilized CD28-Fc; type: binding; details: Table 3, monomeric VHH clones; for ka: affinity constants to CD28-Fc
T2 construct: Fc
Method: Biacore—Affinity clones derived from VHH #2A01 affinity maturation libraries was determined using CD28-Fc immobilized on a CM5 Series S sensor chip. Multi-cycle kinetics measurements were done using 5 step dilutions of the analytes (VHH clones) from 200 nM down to 12.5 nM. Kinetic parameters and affinity values were calculated using the 1:1 binding model in Biacore T 200 E valuation software 3.1 by introducing a double (blank channel and blank sample) subtraction.

[4] = molecular target: T3, human CD28-Fc chimera (R&D, Cat. No. 342-CD) (human, UniProt P10747 19-152); experiment: SPR (Biacore), CD28-Fc immobilized on CM5 chip, VHH as analyte, multi-cycle kinetics, 1:1 model
T3 construct: Bought reagent; also called recombinant human CD28-Fc fusion protein; recombinant CD28 fused to an Fc backbone; Fc part of the bought chimera not given

[5] = molecular target: T3, human CD28-Fc chimera (R&D, Cat. No. …); experiment: ELISA: serial dilution of the agent on recombinant human CD28-Fc fusion protein, OD read
[6] = system: isolated T cells mixed with mature dendritic cells; experiment: Allogeneic mixed lymphocyte reaction (MLR), cytokine secretion; type: cell-based, human; details: monomeric affinity matured VHHs; especially at high concentrations; FIG. 2
Method: (§1) Cytokines ELISA—Commercial ELISA kits were used for quantitation of the amount of human interferon-gamma (Biolegend, Cat. No. 430103), human interleukin 2 (Biolegend, Cat. No. 431802) and human CD28 (R&D system, Cat. No. DY342). Cell Proliferation and viability (MTT assay) was conducted to assure validity of results and performed according to manufacturer instructions (Roche, Cat. No. 11465007001).
Dendritic cell differentiation—Monocytes were cultured at a density of 1×10^6/mL in RPMI medium with growth factors that was refreshed at day 3 and at day 6. […] When needed the iDCs were further differentiated into mature dendritic cells by addition of 100 ng/mL LPS (Sigma, Cat. No. L4391) and 20 ng/mL interferon-gamma (R&D systems, Cat. No. 285-IF) for 48 hrs. The generated cell populations were tested for the indicated phenotypes by FACS analysis of relevant markers and by analysis of secretion of characteristic cytokines.
Allogeneic Mixed Lymphocyte Reaction—0.1×10^6 T cells were mixed with […] dendritic cells from different donor for 24-96 hours at 37° C. with/without the indicated concentration of treatments. Assays were conducted in complete RPMI-1640 media supplemented with 10% FCS and pen/strep mixture. […]

isolated CD3 T cells = experiment: T cell stimulation with HEK/CD80/scOKT3 artificial antigen presenting cells (aAPC-CD80), IL-2 secretion; type: cell-based, human; details: various concentrations, FIG. 13A-13F, 17A-17F
Method: as §1
T cells stimulation with HEK/CD80/scOKT3 artificial antigen presenting cells (aAPC-CD80)—1×10^5 isolated CD3 T cells (from healthy donors) were stimulated with 0.5×10^4 mitomycin treated aAPC-CD80 (HEK293 cells stably transfected with CD80 and scOKT3-CD14 chimera plasmids) for 24-72 hr at 37° C. Treatments of VHH targeting CD28 or controls were added at the indicated concentration in soluble form. When stated, VHH #3C04 (raised against human HER2) was used as an “irrelevant control” and VHH #12B09 was used as a “positive control” for a nanobody with CD28 antagonist effect. Assays were conducted in complete RPMI-1640 media supplemented with 10% FCS and pen/strep mixture.

## CC#CCOc1ccc(S(=O)(=O)N2CCSC(C)(C)[C@@H]2C(=O)NO)cc1 [TMI, reference compound]
[1]
  sCD28 levels / inhibition of sCD28 production: greatly reduced sCD28 levels

## Isotype hIgG4 (antibody)
[2]
  MFI: 71.9 MFI
[3]
  MFI: 116 MFI

B1: VHH 10E1 (VHH)
VHH: EVQLVESGGGLVQAGESLRLSCAASGSIASIKTMAWYRQAPGSQRELVAAINYIKEIYYADSVKGRFTISRDNAKTTVYLQMNSLRPEDTAVYYCVVDVTKEDYWYWGQGTQVTVSS
notes: also called 10E01
CD28-Fc; CD28-Fc
  kd: 2.84e-06 s⁻¹
CD28-Fc
  ka: 44400 M⁻¹ s⁻¹
[4]
  Kd: 0.0639 nM
  koff: 2.84e-06 s⁻¹
  kon: 44400 M⁻¹ s⁻¹

B2: VHH 12A09: affinity matured variant of VHH 2A1, SEQ ID NO: 32 (protein)
VHH: EVQLVESGGGLVQAGESLRLSCAASGSIASIKTMAWYRQAPGSQRELVTAIASDNRKYYADSVKGRFTISRDNAKTTVYLQMNSLRPEDTAVYYCVVDVTKEDYWYWGQGTQVTVSS
CD28-Fc; CD28-Fc
  Kd: 0.0041 nM
  kd: 3.43e-07 s⁻¹
CD28-Fc
  ka: 83400 M⁻¹ s⁻¹

B3: VHH 2A1 (VHH)
VHH: EVQLVESGGGLVQAGESLRLSCAASGSIASINAMGWYRQAPGSQRELVAAISGGGDTYYADSVKGRFTISRDNAKTTVYLQMNSLRPEDTAVYYCVVDLYGSDYWDWGQGTQVTVSS
notes: Monomeric llama VHH; also called VHH #2A01; monomeric 2A1
[5]
  EC50 (read off the curve): ~40 nM

B4: VHH 6B10: affinity matured variant of VHH 2A1, SEQ ID NO: 28 (protein)
VHH: EVQLVESGGGLVQAGESLRLSCAASGSIASINAMGWYRQAPGSQRELVAAISGGGDTYYADSVKGRFTISRDNAKTTVYLQMNSLRPEDTAVYYCVVDTHRGVYWYWGQGTQVTVSS
[1]
  blocking of CD28 shedding compared to the parental VHH: superior to the parental VHH
[6]
  proinflammatory cytokine (IFN gamma) secretion in MLR, antagonistic effect: robust antagonistic effect

B5: VHH 11E11 (VHH)
VHH: EVQLVESGGGLVQAGESLRLSCAASGSIASINSMAWYRQAPGSQRELVAAISNAREVYYADSVKGRFTISRDNAKTTVYLQMNSLRPEDTAVYYCVVDVYFQEYWYWGQGTQVTVSS
CD28-Fc; CD28-Fc
  kd: 1.64e-05 s⁻¹
CD28-Fc
  ka: 46600 M⁻¹ s⁻¹
[4]
  Kd: 0.352 nM
  koff: 1.64e-05 s⁻¹
  kon: 46600 M⁻¹ s⁻¹

B6: VHH 9B3 (VHH)
VHH: EVQLVESGGGLVQAGESLRLSCAASGSIASIRTMAWYRQAPGSQRELVAAISSGREVYYADSVKGRFTISRDNAKTTVYLQMNSLRPEDTAVYYCVVDMYWQDYWWWGQGTQVTVSS
notes: also called 9B03
CD28-Fc; CD28-Fc
  kd: 7.17e-08 s⁻¹
CD28-Fc
  ka: 112000 M⁻¹ s⁻¹
[4]
  Kd: 0.000642 nM
  koff: 7.17e-08 s⁻¹
  kon: 112000 M⁻¹ s⁻¹

B7: VHH 9A7 (VHH)
VHH: EVQLVESGGGLVQAGESLRLSCAASGSIASINSMGWYRQAPGSQRELVAAISDRSEKYYADSVKGRFTISRDNAKTTVYLQMNSLRPEDTAVYYCVVDHHHSDWWTWGQGTQVTVSS
notes: also called 9A07
CD28-Fc; CD28-Fc
  kd: 9.78e-06 s⁻¹
CD28-Fc
  ka: 51500 M⁻¹ s⁻¹
[4]
  Kd: 0.19 nM
  koff: 9.78e-06 s⁻¹
  kon: 51500 M⁻¹ s⁻¹

B8: VHH 5A3 (VHH)
VHH: EVQLVESGGGLVQAGESLRLSCAASGSIASINSMGWYRQAPGSQRELVAAINEKLLIYYADSVKGRFTISRDNAKTTVYLQMNSLRPEDTAVYYCVVDLYGSDYWDWGQGTQVTVSS
notes: also called 5A03
CD28-Fc; CD28-Fc
  kd: 3.78e-05 s⁻¹
CD28-Fc
  ka: 33800 M⁻¹ s⁻¹
[1]
  blocking of CD28 shedding compared to the parental VHH: superior to the parental VHH
[6]
  proinflammatory cytokine (IFN gamma) secretion in MLR, antagonistic effect: robust antagonistic effect
[4]
  Kd: 1.12 nM
  koff: 3.78e-05 s⁻¹
  kon: 33800 M⁻¹ s⁻¹

B9: VHH 11G11 (VHH)
VHH: EVQLVESGGGLVQAGESLRLSCAASGSIASINTMAWYRQAPGSQRELVAAINSISRTYYADSVKGRFTISRDNAKTTVYLQMNSLRPEDTAVYYCVVDVTKEDYWYWGQGTQVTVSS
CD28-Fc; CD28-Fc
  kd: 5.77e-06 s⁻¹
CD28-Fc
  ka: 47800 M⁻¹ s⁻¹
[4]
  Kd: 0.12 nM and 0.121 nM
  koff: 5.77e-06 s⁻¹
  kon: 47800 M⁻¹ s⁻¹

B10: 2A1-Hinge: VHH 2A1 with human IgG1 hinge region downstream, dimeric, SEQ ID NO: 114 (protein)
chain: EVQLVESGGGLVQAGESLRLSCAASGSIASINAMGWYRQAPGSQRELVAAISGGGDTYYADSVKGRFTISRDNAKTTVYLQMNSLRPEDTAVYYCVVDLYGSDYWDWGQGTQVTVSSDKTHTCPPCPAPEL
modifications: dimeric
[1]
  sCD28 levels / inhibition of sCD28 production: did inhibit sCD28 production, but only at levels that were comparable to the 2A1 monomer
Isolated CD3 T cells
  IL-2 secretion, antagonistic effect: no effect on IL-2 secretion
